Test results: patent US20210060185

Assays:
[1] = target: T1, C-His Ana GvpC with calpain cleavage site (engineered Anabaena flos-aquae GvpC, calpain-sensitive)
T1 chain: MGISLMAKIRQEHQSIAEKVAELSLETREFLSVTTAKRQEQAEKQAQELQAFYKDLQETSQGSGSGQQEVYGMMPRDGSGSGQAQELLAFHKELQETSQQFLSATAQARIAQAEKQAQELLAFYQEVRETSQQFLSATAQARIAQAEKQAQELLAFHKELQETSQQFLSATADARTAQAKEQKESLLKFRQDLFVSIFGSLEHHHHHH

[2] = target: T2, WT C-His Ana GvpC
T2 chain: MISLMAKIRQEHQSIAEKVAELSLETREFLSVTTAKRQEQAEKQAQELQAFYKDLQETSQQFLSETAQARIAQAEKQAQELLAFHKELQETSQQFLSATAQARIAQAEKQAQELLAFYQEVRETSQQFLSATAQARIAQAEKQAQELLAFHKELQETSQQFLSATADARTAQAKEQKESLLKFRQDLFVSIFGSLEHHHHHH

[3] = target: T3, C-His Ana GvpC with TEV cleavage site (engineered Anabaena flos-aquae GvpC, TEV-sensitive)
T3 chain: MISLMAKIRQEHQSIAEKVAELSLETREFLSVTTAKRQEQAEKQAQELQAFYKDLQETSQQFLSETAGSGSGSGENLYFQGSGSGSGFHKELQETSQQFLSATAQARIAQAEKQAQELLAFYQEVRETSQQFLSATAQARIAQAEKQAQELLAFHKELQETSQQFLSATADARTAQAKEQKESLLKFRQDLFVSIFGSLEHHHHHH

B1: calpain-1 from porcine erythrocytes (protein)
chain 1: MAEEVITPVYCTGVSAQVQKLRAKELGLGRHENAIKYLGQDYEQLRAHCLQSGSLFRDEAFPPVPQSLGFKELGPNSSKTYGVKWKRPTELFSNPQFIVDGATRTDICQGALGDCWLLAAIASLTLNDTLLHRVVPHGQSFQNGYAGIFHFQLWQFGEWVDVVVDDLLPTKDGKLVFVHSAQGNEFWSALLEKAYAKVNGSYEALSGGSTSEGFEDFTGGVTEWYELRKAPSDLYSIILKALERGSLLGCSIDISSVLDMEAVTFKKLVKGHAYSVTGAKQVNYQGQMVNLIRMRNPWGEVEWTGAWSDGSSEWNGVDPYQRDQLRVRMEDGEFWMSFRDFLREFTRLEICNLTPDALKSQRVRNWNTTLYEGTWRRGSTAGGCRNYPATFWVNPQFKIRLEETDDPEDDYGGRESGCSFVLALMQKHRRRERRFGRDMETIGFAVYEVPPELVGQPVHLKRDFFLANASRARSEQFINLREVSTRFRLPPGEYVVVPSTFEPNKEGDFVLRFFSEKKAGTQELDDQVQAILPDEQVLSEEEIDENFKALFRQLAGEDMEISVRELRTILNRIISKHKDLRTKGFSLESCRSMVNLMDRDGNGKLGLVEFNILWNRIRNYLSIFRKFDLDKSGSMSAYEMRMAIESAGFKLNKKLFELIITRYSEPDLAVDFDNFVCCLVRLETMFRFFKTLDTDLDGVVTFDLFKWLQLTMFA
chain 2: MFLVNSFLKGGGGGGGGGGGLGGGLGNVLGGLISGAGGGGGGGGGGGGGGGGGGTAMRILGGVISAISEAAAQYNPEPPPPRTHYSNIEANESEEVRQFRRLFAQLAGDDMEVSATELMNILNKVVTRHPDLKTDGFGIDTCRSMVAVMDSDTTGKLGFEEFKYLWNNIKKWQAIYKQFDVDRSGTIGSSELPGAFEAAGFHLNEHLYSMIIRRYSDEGGNMDFDNFISCLVRLDAMFRAFKSLDKDGTGQIQVNIQEWLQLTMYS
- cleavage on Coomassie-stained SDS-PAGE [1]: Electrophoretic analysis confirmed cleavage and partial dissociation of the cleaved fragments from the GV surface
- collapse pressure after exposure to calpain and calcium (FIG. 8B) [1]: ˜290 kPa compared to 336-344 kPa
- hydrostatic collapse pressure (pressurized absorbance spectroscopy) [1]: an approximately 50 kPa decrease in hydrostatic collapse pressure in the presence of the enzyme and its ionic activator
- nonlinear (x-AM) ultrasound contrast [1]: the maximal nonlinear sensor contrast of GVScalp of approximately 7 dB
- nonlinear contrast to noise ratio with calpain and calcium (FIG. 8G) [1]: (+Calp/+Ca^2+) shows a stronger nonlinear ratio (CNR=10.3)
- cleavage on SDS-PAGE, GV collapse pressure and ultrasound response [2]: showed no proteolytic cleavage, change in GV collapse pressure or ultrasound response, after incubation with calcium-activated calpain

B2: recombinant TEV protease (Tobacco etch virus protease) (protein)
chain: GESLFKGPRDYNPISSTICHLTNESDGHTTSLYGIGFGPFIITNKHLFRRNNGTLLVQSLHGVFKVKNTTTLQQHLIDGRDMIIIRMPKDFPPFPQKLKFREPQREERICLVTTNFQTKSMSSMVSDTSCTFPSSDGIFWKHWIQTKDGQCGSPLVSTRDGFIVGIHSASNFTNTNNYFTSVPKNFMELLTNQEAQQWVSGWRLNADSVLWGGHKVFMSKPEEPFQPVKEATQLMNELVYSQ
- cleavage on Coomassie-stained SDS-PAGE [3]: gel electrophoresis of GVSTEV after exposure to active TEV resulted in the appearance of the two cleaved GvpC fragments and a significant reduction in the intact GvpC band
- hydrostatic collapse pressure midpoint (pressurized absorbance spectroscopy) [3]: ˜70 kPa reduction in its collapse pressure midpoint upon incubation with the active TEV protease
- nonlinear (x-AM) ultrasound contrast-to-noise ratio enhancement [3]: a maximal contrast-to-noise ratio (CNR) enhancement of ˜7 dB at an applied acoustic pressure of 438 kPa
- hydrostatic collapse pressure, nonlinear acoustic contrast and cleavage on SDS-PAGE [2]: showed no difference in their hydrostatic collapse pressure or nonlinear acoustic contrast in response to TEV protease (FIGS. 7I-7K), and no wild-type GvpC cleavage was seen upon gel electrophoresis
